Experimental findings from US9127073B2, “Rock2 and Rock3, two new gain-of-function variants of the cytokinin receptors AHK2 and AHK3” (Freie Universitat Berlin, priority 2009, dated 2015) are described below.

Assay [1] relates to Arabidopsis thaliana Columbia (Col-0). The assay can be described thus: Vegetative growth and fresh weight of mutant alleles in wild-type background. Conditions: for vegetative growth of wild-type plants: mutant allele in Col-0 background, compared to wild type. It is filed as in vivo. As to the method:
(§1) The Columbia (Col-0) ecotype of Arabidopsis thaliana was used as the wild type. Plants were grown in the greenhouse on soil or under sterile conditions in Petri dishes containing ATS-medium (Estelle, M. A., and Somerville, C. (1986). Auxin-resistant mutants of Arabidopsis thaliana with an altered morphology. Mol. Gen. Genet. 206, 200-206). All plants were grown at 22° C. under long-day conditions (16 h light/8 h dark).
In order to analyze the consequences of the rock2 and rock3 mutations in wild type, the rock2 and rock3 suppressor mutants in 35S:CKX1 background were crossed to wild-type Columbia. […] The F2 generation was screened for rock2 and rock3 plants in wild-type background (called then rock2 and rock3 mutants).
(§2) At 18 days after germination digital pictures were taken of rosettes and the rosette diameter was measured using the Scion Image program (Scion Corporation, Frederick, Md., USA). Flowers at stage 14 were photographed and their size was also measured using the Scion Image program.
(§3) Fresh weights were measured by weighting either rosettes, shoots without rosettes, or whole aerial parts of the plants. The final plant height and the number of siliques were determined after termination of flowering. For analysis of seed yield, plants were put into paper bags after termination of flowering. After plants were kept dry for additional three weeks, total seed weight was determined.

Assay [2] has the same test system. In words: Natural leaf senescence of leaf 6 (Fv/Fm of PSII, chlorophyll content) under long-day conditions. The assay is classed as in vivo. As to the method: as §1
The maximum efficiency of PSII photochemistry (Fv/Fm ratio) of dark adapted plants was measured with FluorCam (Photon Systems Instruments, Brno, Czech Republic). Chlorophyll contents of individual leaves were measured using the Chlorophyll Meter SPAD-502 (Konika Minolta, Bremen, Germany), taking the mean value of two measurements on the same leaf.

The test system is the same in assay [3]. The assay can be described thus: Shoot parameters of mutant plants and transgenic lines (height, siliques, stem thickness, flower size). The settings on record: compared to wild-type or ore12 plants; for size of flowers: flowers at stage 14. It is filed as in vivo. As to the method: as §1
For the construction of the pAHK2:rock2 transgene a 2124 by promoter region of AHK2 was amplified by PCR from genomic DNA of A. thaliana Col-0 and cloned with Gateway™ technology into the pDONR™ P4-P1R entry vector (Invitrogen, Karlsruhe, Germany). After cloning the AHK2 coding sequence with Gateway™ technology into the pDONR™ 221 entry vector (Invitrogen) the rock2 point mutation was introduced by PCR based mutagenesis with the “QuickChange Site-Directed Mutagenesis”-Kit (Stratagene, La Jolla, USA) to obtain the rock2 Allele. Both fragments were combined with Multisite Gateway™ recombinational cloning in the pK7m24GW,3 vector (Karimi et al., 2005). To obtain the pAHK3:rock3 construct a 2062 bp promoter region of AHK3 was amplified by PCR from genomic DNA of A. thaliana Col-0 and the fragment was inserted into pDONR™P4-P1R entry vector (Invitrogen). The AHK3 cDNA containing the open reading frame of the gene was PCR-amplified from A. thaliana Col-0 and cloned into pDONR™222 entry vector (Invitrogen). To introduce the rock3 point mutation the “QuickChange Site-Directed Mutagenesis”-Kit (Stratagene, La Jolla, USA) was used to get the rock3 allele. The AHK3 promoter and the ROCK3 cDNA were combined with Multisite Gateway™ recombinational cloning in the pK7m24GW,3 vector (Karimi, M., De Meyer, B., and Nilson, P. (2005). Modular cloning in plant cells. Trends Plant Sci. 10, 103-105). Both constructs were introduced into Agrobacterium tumefaciens strain GV3101 and A. thaliana Col-0 plants were transformed using the floral-dip method (Clough, S. J., and Bent, A. F. (1998). Floral dip: a simplified method for Agrobacterium-mediated transformation of Arabidopsis thaliana. Plant J. 16, 735-743). Transgenic lines were selected using kanamycin and propagated into the T3 or T4 generation.
as §2, §3

Another assay deals with 35S:CKX1 plants. The assay can be described thus: Reversion of the cytokinin-deficiency phenotype in the 35S:CKX1 background. The assay is classed as in vivo, Arabidopsis thaliana. Here is the method:
Approximately 25000 35S:CKX1 seeds (Werner, T., Motyka, V., Laucou, V., Smets, R., Van Onckelen, H., and Schmülling, T. (2003). Cytokinin-deficient transgenic Arabidopsis plants show multiple developmental alterations indicating opposite functions of cytokinins in the regulation of shoot and root meristem activity. Plant Cell 15, 2532-2550) were soaked for 16 h in 100 ml 0.2% (v/v) ethyl methane sulfonate at room temperature. The M1 generation was grown as single plants and the M2 generation was screened for plants with wild-type-like phenotype.
Mapping populations for rock2 and rock3 were generated by crossing the rock2 35S:CKX1 and rock3 35S:CKX1 plants with wild type ecotype Landsberg erecta. The F2 progeny plants were used to map rock2 and rock3.
In order to compare the consequences of the rock3 mutation with those of the ore12 mutation the latter was introgressed into the 35S:CKX1 background (the rock3 was identified in this background). […] However, at different time points during development the degree of reversion is less strong than the reversion achieved with the rock3 allele. This difference is most evident for seedling size and rosette diameter. These two parameters are good indicators for a changed cytokinin status of the CKX1ox plants.

B1: rock2: constitutively active gain-of-function variant of cytokinin receptor AHK2 of Arabidopsis thaliana, SEQ ID No. 1, encoded by SEQ ID No. 3 (protein, listed as Arabidopsis thaliana)
chain: MSITCELLNLTSKKAKKSSSSDKKWLKKPLFFLILCGSLVIVLVMFLRLGRSQKEETDSCNGEEKVLYRHQNVTRSEIHDLVSLFSDSDQVTSFECHKESSPGMWTNYGITCSLSVRSDKQETRGLPWNLGLGHSISSTSCMCGNLEPILQQPENLEEENHEEGLEQGLSSYLRNAWWCLILGVLVCHKIYVSHSKARGERKEKVHLQEALAPKKQQQRAQTSSRGAGRWRKNILLLGILGGVSFSVWWFWDTNEEIIMKRRETLANMCDERARVLQDQFNVSLNHVHALSILVSTFHHGKIPSAIDQRTFEEYTERTNFERPLTSGVAYALKVPHSEREKFEKEHGWAIKKMETEDQTVVQDCVPENFDPAPIQDEYAPVIFAQETVSHIVSVDMMSGEEDRENILRARASGKGVLTSPFKLLKSNHLGVVLTFAVYDTSLPPDATEEQRVEATIGYLGASYDMPSLVEKLLHQLASKQTIAVDVYDTTNTSGLIKMYGSEIGDISEQHISSLDFGDPSRNHEMHCRFKHKLPIPWTAITPSILVLVITFFVGYILYEAINRIATVEEDCQKMRELKARAEAADIAKSQFLATVSHEIRTPMNGVLGMLKMLMDTDLDAKQMDYAQTAHGSGKDLTSLINEVLDQAKIESGRLELENVPFDMRFILDNVSSLLSGKANEKGIELAVYVSSQVPDVVVGDPSRFRQIITNLVGNSIKFTQERGHIFISVHLADEVKEPLTIEDAVLKQRLALGCSESGETVSGFPAVNAWGSWKNFKTCYSTESQNSDQIKLLVTVEDTGVGIPVDAQGRIFTPFMQADSSTSRTYGGTGIGLSISKRLVELMQGEMGFVSEPGIGSTFSFTGVFGKAETNTSITKLERFDLAIQEFTGLRALVIDNRNIRAEVTRYELRRLGISADIVSSLRMACTCCISKLENLAMILIDKDAWNKEEFSVLDELFTRSKVTFTRVPKIFLLATSATLTERSEMKSTGLIDEVVIKPLRMSVLICCLQETLVNGKKRQPNRQRRNLGHLLREKQILVVDDNLVNRRVAEGALKKYGAIVTCVESGKAALAMLKPPHNFDACFMDLQMPEMDGFEATRRVRELEREINKKIASGEVSAEMFCKFSSWHVPILAMTADVIQATHEECMKCGMDGYVSKPFEEEVLYTAVARFFEPC
Turning to B1, the “increase in fresh weight of rosettes and whole plant over the complete life cycle” value in assay [1] (difference particularly evident at 32-40 DAG) is recorded as “effect is strongest”. In addition, the “vegetative growth of wild-type plants” value in assay [1] was “significantly enhance the vegetative growth”. In addition, the “onset of leaf senescence” value in assay [2] (leaf 6, compared to wild type and among mutants) is reported as “earliest onset of leaf senescence”. Moreover, in assay [3], the “number of siliques on the main stem” value is listed as “more siliques on the main stem”, the “shoot height (plant height)” value is listed as “increased”, the stem thickness result is “thicker stems” and the size of flowers result is given as “bigger flowers”. In the assay with 35S:CKX1 plants, the “reversion of the phenotypic consequences of CKX1 overexpression (cytokinin deficiency)” value is on record as “suppress the phenotypic consequences of cytokinin deficiency”.

B2: rock3: constitutively active gain-of-function variant of cytokinin receptor AHK3 of Arabidopsis thaliana, SEQ ID No. 2, encoded by SEQ ID No. 4 (protein, listed as Arabidopsis thaliana)
chain: MSLFHVLGFGVKIGHLFWMLCCWFVSWFVDNGIEDKSGLLVGSVGDLEKTKMTTLKKKNKMWFWNKISSSGLKIPSFSYQFLGSVKFNKAWWRKLVVVWVVFWVLVSIWTFWYFSSQAMEKRKETLASMCDERARMLQDQFNVSMNHVQAMSILISTFHHGKIPSAIDQRTFSEYTDRISFERPLTSGVAYAMRVLHSEREEFERQQGWTIRKMYSLEQNPVHKDDYDLEALEPSPVQEEYAPVIFAQDTVSHVVSLDMLSGKEDRENVLRARSSGKGVLTAPFPLIKTNRLGVILTFAVYKRDLPSNATPKERIEATNGYLGGVFDIESLVENLLQQLASKQTILVNVYDITNHSQPISMYGTNVSADGLERVSPLIFGDPLRKHEMRCRFKQKPPWPVLSMVTSFGILVIALLVAHIIHATVSRIHKVEEDCDKMKQLKKKAEAADVAKSQFLATVSHEIRTPMNGVLGMLHMLMDTELDVTQQDYVRTAQASGKALVSLINEVLDQAKIESGKLELEEVRFDLRGILDDVLSLFSSKSQQKGVELAVYISDRVPDMLIGDPGRFRQILTNLMGNSIKFTEKGHIFVTVHLVDELFESIDGETASSPESTLSGLPVADRQRSWENFKAFSSNGHRSFEPSPPDINLIVSVEDTGVGIPVEAQSRIFTPFMQVGPSISRTHGGTGIGLSISKCLVGLMKGEIGFSSTPKVGSTFTFTAVFSNGMQPAERKNDNNQPIFSEFRGMKAVVVDHRPARAKVSWYHFQRLGIRVEVVPRVEQALHYLKIGTTTVNMILIEQEIWNREADDFIKKLQKDPLFLSPKLILLANSVESSISEALCTGIDPPIVIVKPLRASMLAATLQRGLGIGIREPPQHKGPPALILRNLLLGRKILIVDDNNVNLRVAAGALKKYGADVVCAESGIKAISLLKPPHEFDACFMDIQMPEMDGFEATRRIRDMEEEMNKRIKNGEALIVENGNKTSWHLPVLAMTADVIQATHEECLKCGMDGYVSKPFEAEQLYREVSRFFNSPSDTES
Consider B2, for which the “vegetative growth of wild-type plants” value in assay [1] is recorded as “significantly enhance the vegetative growth”. The “longer life time of leaves compared to wild-type leaves” value in assay [2] (leaf 6, long-day conditions) is given as “about ten”. In addition, in assay [3], the stem thickness result is given as “thicker stems” and the size of flowers result is “bigger flowers”. In addition, the “reversion of the phenotypic consequences of CKX1 overexpression (cytokinin deficiency)” value with 35S:CKX1 plants is listed as “suppress the phenotypic consequences of cytokinin deficiency”.
